# Values joined by “and” are separate entries in the source; they are usually repeats but may differ in a detail not shown here. Identical values can stand only once.
# How the values were obtained:
# [1] = target: FcγRII (CD32) expressed on Raji cells; assay: cell-based or functional assay
# [2] = target: human CTLA4 expressed on Jurkat T cells (CTLA4 effector cells) (human) (UniProt P16410); assay: cell-based or functional assay
# Sequence of human CTLA4 expressed on Jurkat T cells (CTLA4 effector cells) (human) (P16410 36-223): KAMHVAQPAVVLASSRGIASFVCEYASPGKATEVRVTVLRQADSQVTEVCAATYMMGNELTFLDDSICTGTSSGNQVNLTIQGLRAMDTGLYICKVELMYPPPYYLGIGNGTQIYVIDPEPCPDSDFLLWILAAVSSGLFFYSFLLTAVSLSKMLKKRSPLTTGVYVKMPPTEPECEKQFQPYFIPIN
# Sequence of L3D10 (BioLegend anti-CTLA4 antibody) (heavy): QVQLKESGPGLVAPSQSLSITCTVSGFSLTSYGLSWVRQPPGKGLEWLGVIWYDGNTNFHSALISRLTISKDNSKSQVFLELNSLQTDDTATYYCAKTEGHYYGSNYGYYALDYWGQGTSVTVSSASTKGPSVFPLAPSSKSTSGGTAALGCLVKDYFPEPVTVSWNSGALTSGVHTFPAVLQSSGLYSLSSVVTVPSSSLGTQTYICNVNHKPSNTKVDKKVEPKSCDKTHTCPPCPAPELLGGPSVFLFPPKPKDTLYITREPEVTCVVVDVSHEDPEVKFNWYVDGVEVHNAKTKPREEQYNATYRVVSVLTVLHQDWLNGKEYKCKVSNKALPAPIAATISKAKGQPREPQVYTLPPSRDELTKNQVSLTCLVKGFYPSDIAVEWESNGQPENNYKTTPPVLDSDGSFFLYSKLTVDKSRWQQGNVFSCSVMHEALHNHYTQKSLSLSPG
# Sequence of L3D10 (BioLegend anti-CTLA4 antibody) (light): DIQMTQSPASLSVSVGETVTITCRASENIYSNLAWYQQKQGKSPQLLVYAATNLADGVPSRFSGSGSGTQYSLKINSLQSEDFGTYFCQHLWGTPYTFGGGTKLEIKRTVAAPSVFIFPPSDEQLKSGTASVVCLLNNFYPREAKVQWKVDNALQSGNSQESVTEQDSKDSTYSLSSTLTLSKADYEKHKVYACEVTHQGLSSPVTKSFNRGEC
RLU ratio of the CTLA4 blockade assay with anti-CD32 antibody at 10 µg per ml [1] [%],"RLU ratio, Promega CTLA4 Blockade Bioassay (luciferase readout) [2]","half max activity concentration, CTLA4 Blockade Bioassay (luciferase or IL-2 readout) [2] [nM]",activity in the CTLA4 blockade assay with anti-CD32 antibody [1] [%],Substance
50,10 and 15,50,,L3D10 (BioLegend anti-CTLA4 antibody)
50,,,50,"ipilimumab (Selleckchem, Cat. No. A2001) (antibody)"

# — patent US20250282870A1
